Source: patent publication US20070059284A1

Biological target: Human IL-21 Receptor (human) (UniProt Q9HBE5)
Assay: cell-based or functional assay

In the case of “human IL-21-saporin immunotoxin conjugate (from UniProt P20656 25-277)”, the 3H-thymidine incorporation of conjugate-treated MOLT-13 cells relative to IL-21 treated MOLT-13 cells is reported as 70%, the density of conjugate-treated DEL cells relative to untreated cells (3H-thymidine) is reported as 25% and the density of conjugate-treated HuT-78 cells relative to untreated cells (3H-thymidine) is reported as 33%. It also gave a density of conjugate-treated HuT-102 cells relative to untreated cells (3H-thymidine) of 20%, a density of conjugate-treated YT cells relative to untreated cells (3H-thymidine) of 33% and a growth inhibition of IM-9 cells at the maximal conjugate concentration (250 ng/ml), Alamar Blue proliferation assay of 79%. The growth inhibition of RAMOS cells at the maximal conjugate concentration (250 ng/ml), Alamar Blue proliferation assay was 65%.
